Data on four substances can be found in publication PMC10004559, “Identification of residues involved in allosteric signal transmission from amino acid binding site of pyruvate kinase muscle isoform 2” (PLOS ONE, 2023).

The data set deals with C=C(OP(=O)(O)O)C(=O)O. The data set can be described thus: purified protein, by the assay type. The conditions noted are these: ADP 0.8 mM, pH 7.5.

PKM2 N70D (Homo sapiens; N70D), sequence (chain, as listed by the source N70D N70D): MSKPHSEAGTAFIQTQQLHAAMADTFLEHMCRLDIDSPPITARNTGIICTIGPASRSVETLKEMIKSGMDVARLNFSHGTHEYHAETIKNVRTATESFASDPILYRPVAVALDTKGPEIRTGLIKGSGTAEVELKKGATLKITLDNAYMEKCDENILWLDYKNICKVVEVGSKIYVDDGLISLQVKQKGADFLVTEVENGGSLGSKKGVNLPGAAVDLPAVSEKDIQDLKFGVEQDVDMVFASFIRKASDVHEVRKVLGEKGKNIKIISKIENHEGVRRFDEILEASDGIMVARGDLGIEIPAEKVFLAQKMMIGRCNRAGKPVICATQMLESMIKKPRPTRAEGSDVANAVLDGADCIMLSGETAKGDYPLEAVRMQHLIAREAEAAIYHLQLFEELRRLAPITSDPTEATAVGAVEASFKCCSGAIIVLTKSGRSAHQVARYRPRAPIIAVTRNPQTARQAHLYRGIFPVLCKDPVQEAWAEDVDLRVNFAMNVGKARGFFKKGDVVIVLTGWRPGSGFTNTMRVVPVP
PKM2 R106A (Homo sapiens; R106A), sequence (chain, as listed by the source R106A R106A): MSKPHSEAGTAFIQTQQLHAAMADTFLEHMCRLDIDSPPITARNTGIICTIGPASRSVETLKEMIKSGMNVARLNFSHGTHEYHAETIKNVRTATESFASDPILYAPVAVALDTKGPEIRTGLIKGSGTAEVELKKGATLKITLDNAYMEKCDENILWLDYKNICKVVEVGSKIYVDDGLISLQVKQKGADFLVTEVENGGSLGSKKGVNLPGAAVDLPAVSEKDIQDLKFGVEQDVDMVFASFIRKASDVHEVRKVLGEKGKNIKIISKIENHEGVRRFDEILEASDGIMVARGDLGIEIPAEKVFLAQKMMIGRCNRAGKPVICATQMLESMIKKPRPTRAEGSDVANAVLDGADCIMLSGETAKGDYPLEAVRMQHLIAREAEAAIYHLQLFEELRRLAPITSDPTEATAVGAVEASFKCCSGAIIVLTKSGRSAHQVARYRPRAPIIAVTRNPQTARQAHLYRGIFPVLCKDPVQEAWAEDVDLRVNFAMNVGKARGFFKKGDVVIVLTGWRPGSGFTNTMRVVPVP
PKM2 N75L (Homo sapiens; N75L), sequence (chain, as listed by the source N75L N75L): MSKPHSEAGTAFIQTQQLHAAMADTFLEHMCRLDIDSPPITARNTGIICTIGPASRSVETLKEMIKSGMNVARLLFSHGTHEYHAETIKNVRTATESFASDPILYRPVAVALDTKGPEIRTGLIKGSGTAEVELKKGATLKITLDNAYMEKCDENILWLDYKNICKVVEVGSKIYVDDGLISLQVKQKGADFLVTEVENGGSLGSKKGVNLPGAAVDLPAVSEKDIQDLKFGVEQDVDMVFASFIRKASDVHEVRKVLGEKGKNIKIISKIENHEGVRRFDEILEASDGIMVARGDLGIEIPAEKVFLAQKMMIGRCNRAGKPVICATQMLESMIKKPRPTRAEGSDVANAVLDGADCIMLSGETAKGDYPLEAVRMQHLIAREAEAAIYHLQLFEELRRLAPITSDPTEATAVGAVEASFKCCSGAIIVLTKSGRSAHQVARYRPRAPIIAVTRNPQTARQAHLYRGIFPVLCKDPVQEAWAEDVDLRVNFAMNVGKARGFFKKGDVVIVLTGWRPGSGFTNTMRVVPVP

On to PKM2 R106A (Homo sapiens; R106A), for which, where the note is “other: 50 nM PKM2 R106A, no AA”, the Michaelis-Menten constant (Km) amounted to 510 ± 40 µM and the kcat/Km is 9.6±0.8 ×10^3 mM^-1 min^-1.

Regarding PKM2 N70D (Homo sapiens; N70D), for the setting “other: 65 nM PKM2 N70D, no AA”, the Km is 780 ± 160 µM and the kcat/Km is recorded as 5.9±1.3 ×10^3 mM^-1 min^-1.

With PKM2 N75L (Homo sapiens; N75L), the Km (other: 4200 nM PKM2 N75L, no AA) turned out to be 80 µM.

Consider wtPKM2 (Homo sapiens), for which the Michaelis constant (Km) (other: 10 nM wtPKM2, no AA) turned out to be 700 µM.
